Results taken from US20100093634A1 (UNIVERSITY OF MARYLAND BALTIMORE, published 2010).

T1: myc-tagged ARH (human, UniProt Q5SW96 1-308, limits assumed)
T1 construct: Expressed in COS-7 cells
T1 sequence: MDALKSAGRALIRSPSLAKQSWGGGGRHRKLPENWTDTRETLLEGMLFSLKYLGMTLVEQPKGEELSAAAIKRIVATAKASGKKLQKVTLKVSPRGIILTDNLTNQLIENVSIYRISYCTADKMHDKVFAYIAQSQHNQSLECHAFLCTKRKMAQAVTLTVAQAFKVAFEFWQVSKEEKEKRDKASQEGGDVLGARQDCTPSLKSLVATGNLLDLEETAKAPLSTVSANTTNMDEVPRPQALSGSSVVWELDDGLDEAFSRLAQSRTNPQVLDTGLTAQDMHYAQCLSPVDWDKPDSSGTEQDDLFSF


Tests used:
[1] = target: N2.1/ROMK chimera with the N375PNF tract replaced with AAAA; assay: cell-based or functional assay
myc-tagged ARH = target: T1, myc-tagged ARH; assay: co-immunoprecipitation from COS-7 cells
Experimental: Using immunofluorescent confocal microscopy it was determined that ARH is predominately expressed in the distal nephron, where it co-localizes with ROMK in subapical and perinuclear compartments (FIG. 2A). See Example D. It was also determined that ROMK co-immunoprecipitates with ARH on anti-ARH antibody-bound beads but not with an unrelated IgG (FIG. 2B). The specificity of the ARH-ROMK co-immunoprecipitation was corroborated by similar studies with different antibodies, HA-epitope-tagged ROMK and myc-tagged-ARH in COS-7 cells (FIGS. 2C & D). Importantly, alanine replacement of the NPNF motif in ROMK completely abrogated the ARH-ROMK co-immunoprecipitation.

surface expression [1] [%] | binding result (myc-tagged ARH) | Molecule
100 |  | ARH co-expressed in COS-7 cells (from UniProt Q5SW96 1-308)
 | no binding | HA-epitope-tagged mutant ROMK lacking the NPXF motif (alanine replacement of the NPNF motif) (other, Expressed in COS-7 cells) MGASERSVFRVLIRALTERMFKHLRRWFITHIFGRSRQRARLVSKEGRCNIEFGNVDAQSRFIFFVDIWTTVLDLKWRYKMTVFITAFLGSWFLFGLLWYVVAYVHKDLPEFYPPDNRTPCVENINGMTSAFLFSLETQVTIGYGFRFVTEQCATAIFLLIFQSILGVIINSFMCGAILAKISRPKKRAKTITFSKNAVISKRGGKLCLLIRVANLRKSLLIGSHIYGKLLKTTITPEGETIILDQTNINFVVDAGNENLFFISPLTIYHIIDHNSPFFHMAAETLSQQDFELVVFLDGTVESTSATCQVRTSYVPEEVLWGYRFVPIVSKTKEGKYRVDFHNFGKTVEVETPHCAMCLYNEKDARARMKRGYDAAAAVLSEVDETDDTQM
